Sequences and labels used below:
T1: human OPGbp [143-317] (human, UniProt O14788 143-317)
T1 sequence (looked up): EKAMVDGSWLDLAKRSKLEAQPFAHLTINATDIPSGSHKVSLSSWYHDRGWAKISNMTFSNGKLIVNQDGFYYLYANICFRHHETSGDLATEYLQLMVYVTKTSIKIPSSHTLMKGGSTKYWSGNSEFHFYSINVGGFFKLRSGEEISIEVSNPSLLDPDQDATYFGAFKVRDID

B1: human OPG [22-194]-Fc (Fc fusion, UniProt O00300 22-194, looked up, not shown: a dimerising Fc or GST)
chain: ETFPPKYLHYDEETSHQLLCDKCPPGTYLKQHCTAKWKTVCAPCPDHYYTDSWHTSDECLYCSPVCKELQYVKQECNRTHNRVCECKEGRYLEIEFCLKHRSCPPGFGVVQAGTPERNTVCKRCPDGFFSNETSSKAPCRKHTNCSVFGLLLTQKGNATHDNICSGNSESTQK
B2: “AT” Fab variant G(100b)A (heavy chain CDR3) (Fab, name in Kabat numbering, V domains shown)
VH: QVQLVQSGAEVRKPGASVKVSCKASGYDFSNYAIHWVRQAPGQRLEWMGWINAGNGNTKFSQKFQGRITVTRDTAASTAYMELRSLRSEDTAVYYCARDSSNMVRAIIIAYYFDYWGQGTLVTVSS
VL: EIVMTQSPSSLSASVGDRVTITCRASQSISRYLNWYQLKPGKAPRLLIYGASSLQSGVPSRFSGSGSGAEFTLTISSLQPEDIATYYCQHTRAFGQGTKVEIKR
B3: “AT” Fab variant M99A (heavy chain CDR3) (Fab, name in Kabat numbering, V domains shown)
VH: QVQLVQSGAEVRKPGASVKVSCKASGYDFSNYAIHWVRQAPGQRLEWMGWINAGNGNTKFSQKFQGRITVTRDTAASTAYMELRSLRSEDTAVYYCARDSSNAVRGIIIAYYFDYWGQGTLVTVSS
VL: EIVMTQSPSSLSASVGDRVTITCRASQSISRYLNWYQLKPGKAPRLLIYGASSLQSGVPSRFSGSGSGAEFTLTISSLQPEDIATYYCQHTRAFGQGTKVEIKR
B4: “AT” Fab variant N98A (heavy chain CDR3) (Fab, name in Kabat numbering, V domains shown)
VH: QVQLVQSGAEVRKPGASVKVSCKASGYDFSNYAIHWVRQAPGQRLEWMGWINAGNGNTKFSQKFQGRITVTRDTAASTAYMELRSLRSEDTAVYYCARDSSAMVRGIIIAYYFDYWGQGTLVTVSS
VL: EIVMTQSPSSLSASVGDRVTITCRASQSISRYLNWYQLKPGKAPRLLIYGASSLQSGVPSRFSGSGSGAEFTLTISSLQPEDIATYYCQHTRAFGQGTKVEIKR
B5: “AT” Fab variant R(100a)A (heavy chain CDR3) (Fab, name in Kabat numbering, V domains shown)
VH: QVQLVQSGAEVRKPGASVKVSCKASGYDFSNYAIHWVRQAPGQRLEWMGWINAGNGNTKFSQKFQGRITVTRDTAASTAYMELRSLRSEDTAVYYCARDSSNMVAGIIIAYYFDYWGQGTLVTVSS
VL: EIVMTQSPSSLSASVGDRVTITCRASQSISRYLNWYQLKPGKAPRLLIYGASSLQSGVPSRFSGSGSGAEFTLTISSLQPEDIATYYCQHTRAFGQGTKVEIKR
B6: “AT” Fab variant S97A (heavy chain CDR3) (Fab, name in Kabat numbering, V domains shown)
VH: QVQLVQSGAEVRKPGASVKVSCKASGYDFSNYAIHWVRQAPGQRLEWMGWINAGNGNTKFSQKFQGRITVTRDTAASTAYMELRSLRSEDTAVYYCARDSANMVRGIIIAYYFDYWGQGTLVTVSS
VL: EIVMTQSPSSLSASVGDRVTITCRASQSISRYLNWYQLKPGKAPRLLIYGASSLQSGVPSRFSGSGSGAEFTLTISSLQPEDIATYYCQHTRAFGQGTKVEIKR
B7: “AT” Fab variant S96A (heavy chain CDR3) (Fab, name in Kabat numbering, V domains shown)
VH: QVQLVQSGAEVRKPGASVKVSCKASGYDFSNYAIHWVRQAPGQRLEWMGWINAGNGNTKFSQKFQGRITVTRDTAASTAYMELRSLRSEDTAVYYCARDASNMVRGIIIAYYFDYWGQGTLVTVSS
VL: EIVMTQSPSSLSASVGDRVTITCRASQSISRYLNWYQLKPGKAPRLLIYGASSLQSGVPSRFSGSGSGAEFTLTISSLQPEDIATYYCQHTRAFGQGTKVEIKR
B8: “AT” Fab variant I(100e)A (heavy chain CDR3) (Fab, name in Kabat numbering, V domains shown)
VH: QVQLVQSGAEVRKPGASVKVSCKASGYDFSNYAIHWVRQAPGQRLEWMGWINAGNGNTKFSQKFQGRITVTRDTAASTAYMELRSLRSEDTAVYYCARDSSNMVRGIIAAYYFDYWGQGTLVTVSS
VL: EIVMTQSPSSLSASVGDRVTITCRASQSISRYLNWYQLKPGKAPRLLIYGASSLQSGVPSRFSGSGSGAEFTLTISSLQPEDIATYYCQHTRAFGQGTKVEIKR
B9: “AT” Fab variant Y(100g)A (heavy chain CDR3) (Fab, name in Kabat numbering, V domains shown)
VH: QVQLVQSGAEVRKPGASVKVSCKASGYDFSNYAIHWVRQAPGQRLEWMGWINAGNGNTKFSQKFQGRITVTRDTAASTAYMELRSLRSEDTAVYYCARDSSNMVRGIIIAAYFDYWGQGTLVTVSS
VL: EIVMTQSPSSLSASVGDRVTITCRASQSISRYLNWYQLKPGKAPRLLIYGASSLQSGVPSRFSGSGSGAEFTLTISSLQPEDIATYYCQHTRAFGQGTKVEIKR
B10: “AT” Fab variant I(100d)A (heavy chain CDR3) (Fab, name in Kabat numbering, V domains shown)
VH: QVQLVQSGAEVRKPGASVKVSCKASGYDFSNYAIHWVRQAPGQRLEWMGWINAGNGNTKFSQKFQGRITVTRDTAASTAYMELRSLRSEDTAVYYCARDSSNMVRGIAIAYYFDYWGQGTLVTVSS
VL: EIVMTQSPSSLSASVGDRVTITCRASQSISRYLNWYQLKPGKAPRLLIYGASSLQSGVPSRFSGSGSGAEFTLTISSLQPEDIATYYCQHTRAFGQGTKVEIKR
B11: “AT” Fab variant V100A (heavy chain CDR3) (Fab, name in Kabat numbering, V domains shown)
VH: QVQLVQSGAEVRKPGASVKVSCKASGYDFSNYAIHWVRQAPGQRLEWMGWINAGNGNTKFSQKFQGRITVTRDTAASTAYMELRSLRSEDTAVYYCARDSSNMARGIIIAYYFDYWGQGTLVTVSS
VL: EIVMTQSPSSLSASVGDRVTITCRASQSISRYLNWYQLKPGKAPRLLIYGASSLQSGVPSRFSGSGSGAEFTLTISSLQPEDIATYYCQHTRAFGQGTKVEIKR
B12: “AT” Fab variant I(100c)A (heavy chain CDR3) (Fab, name in Kabat numbering, V domains shown)
VH: QVQLVQSGAEVRKPGASVKVSCKASGYDFSNYAIHWVRQAPGQRLEWMGWINAGNGNTKFSQKFQGRITVTRDTAASTAYMELRSLRSEDTAVYYCARDSSNMVRGAIIAYYFDYWGQGTLVTVSS
VL: EIVMTQSPSSLSASVGDRVTITCRASQSISRYLNWYQLKPGKAPRLLIYGASSLQSGVPSRFSGSGSGAEFTLTISSLQPEDIATYYCQHTRAFGQGTKVEIKR
B13: “AT” Fab variant Y(100h)A (heavy chain CDR3) (Fab, name in Kabat numbering, V domains shown)
VH: QVQLVQSGAEVRKPGASVKVSCKASGYDFSNYAIHWVRQAPGQRLEWMGWINAGNGNTKFSQKFQGRITVTRDTAASTAYMELRSLRSEDTAVYYCARDSSNMVRGIIIAYAFDYWGQGTLVTVSS
VL: EIVMTQSPSSLSASVGDRVTITCRASQSISRYLNWYQLKPGKAPRLLIYGASSLQSGVPSRFSGSGSGAEFTLTISSLQPEDIATYYCQHTRAFGQGTKVEIKR

One assay addresses T1, human OPGbp [143-317]. The assay can be described thus: cell-based or functional assay.
As for B1, the “RAW cell assay, IC50, positive control” value is 0.033 µg/mL.

Another assay concerns the target T1, human OPGbp [143-317]. In words: SPR (BIAcore), immobilized OPGbp [143-317].
In general, koff refers to the rate constant with which the complex falls apart. Higher therefore signals fast dissociation. B2 showed a koff of 0.657 s⁻¹. B3: the koff came to 1.12 s⁻¹. The same measure, in the same setting: to B4 belongs 0.012 s⁻¹. The same measure, in the same setting: to B5 belongs 0.303 s⁻¹; to B6, 0.0062 s⁻¹. Still for that read-out and setting: to B7 belongs 0.0072 s⁻¹; to B8, 0.0069 s⁻¹; to B9, 0.074 s⁻¹. Consider B10, for which the dissociation rate constant (koff) is 0.622 s⁻¹. Same read-out and setting: under B11 stands 0.261 s⁻¹. On the same count and under the same terms, to B12 belongs 0.53 s⁻¹; to B13, 0.368 s⁻¹.

The values are drawn from US20140147444A1 (published 2014).
